# In patent publication US11312984B2, “High-purity steviol glycosides” (PURECIRCLE SDN BHD, priority 2013, dated 2022):
# B1: UGT76G1_Sc (protein, UniProt Q6VAB4 1-458, looked up)
# UDP-glycosyltransferase 76G1: MENKTETTVRRRRRIILFPVPFQGHINPILQLANVLYSKGFSITIFHTNFNKPKTSNYPHFTFRFILDNDPQDERISNLPTHGPLAGMRIPIINEHGADELRRELELLMLASEEDEEVSCLITDALWYFAQSVADSLNLRRLVLMTSSLFNFHAHVSLPQFDELGYLDPDDKTRLEEQASGFPMLKVKDIKSAYSNWQILKEILGKMIKQTKASSGVIWNSFKELEESELETVIREIPAPSFLIPLPKHLTASSSSLLDHDRTVFQWLDQQPPSSVLYVSFGSTSEVDEKDFLEIARGLVDSKQSFLWVVRPGFVKGSTWVEPLPDGFLGERGRIVKWVPQQEVLAHGAIGAFWTHSGWNSTLESVCEGVPMIFSDFGLDQPLNARYMSDVLKVGVYLENGWERGEIANAIRRVMVDEEGEYIRQNARVLKQKADVSLMKGGSSYESLESLVSYISSL
# modifications: expressed in Saccharomyces cerevisiae
# Experiment: Activity of UGT76G1_Sc for the conversion of Rebaudioside D to Rebaudioside M
# Type: biochemical
# Conditions: based on initial concentration of Rebaudioside D; 21 h.
# Description: UGT76G1_Sc was prepared according to EXAMPLE 34. Activity tests were performed at 2 mL scale with 200 μL of lysate for the transformation of Rebaudioside D using 0.5 mM of substrate, 2.5 mM of UDP-Glucose and 3 mM MgCl2 in 50 mM Sodium Phosphate buffer at pH 7.2. Samples were taken and analyzed by HPLC according to the method of EXAMPLE 20.
molecule,measurement,value
B1,Rebaudioside M selectivity (Retention Time ~6.7 min),100%
